Source: publication PMC10159178 (PLOS ONE, 2023)

B1: 3D2 human monoclonal antibody against the RBD of SARS-CoV-2 (antibody, V domains shown)
VH: EVQLVQSGAEVKKPGDSLKISCKGSGYSFANYWIGWVRQKPGKGLEWMGIIYPGDSDTRYSPSSLGQVSISVDKSISTAYLQWSSLKASDTAMYYCARHPIHGYGSGSLYNPDYWGQGTLVTVSS
VL: QSVLTQPPSVSAAPGQKVTISCSGSNSNIGINYVSWYQQLPETAPKLLIYENNQRPSGIPDRFSGSKSGTSATLGITGLQTGDEADYYCGTWDTSLGAYVFGTGTKVTVL
notes: also called 3D2 mAb
B2: 1D1 human monoclonal antibody against the RBD of SARS-CoV-2 (antibody, V domains shown)
VH: EVLLVESGGGLIQPGGSLRLSCAASGFTVSSNYMIWVRQAPGKGLEWVSLIYSGGSTFYADSVKGRFIISRDSSKNTLYLQMNSLRAEDTAVYYCAREPYGDKAWGQGTLVTVSS
VL: DIQMTQSPSSLSASVGDRVTITCQASQDINKYLNWYQQKPGKAPKPLISDTSNLQPGVPSRFSGSGAGTDFTLTISSLQPEDIATYYCQQYDNLPITFGQGTRLEIK

Molecular target: wild-type SARS-CoV-2 RBD-His protein (SARS-CoV-2, wild-type, UniProt P0DTC2)
Assay: SPR
Details: both partners purified

Binder	Kd [nM]	koff [s⁻¹]	kon [M⁻¹ s⁻¹]	t1/2 [min]
B1	0.789	0.000268	339000	43.1
B2	0.242	0.00015	620000	
